We go through one molecule from article PMC10294715, “Single-cell RNA-seq uncovers dynamic processes orchestrated by RNA-binding protein DDX43 in chromatin remodeling during spermiogenesis”.

The data set deals with DDX43-KI (Mus musculus, UniProt D3Z6P9 1-646, E395Q). Put plainly: EMSA; EMSA: 10 nM biotin-RNA, 50 mM Tris-HCl pH 7.5, 100 mM KCl, 2.5% glycerol, 0.05% NP-40, 4 mM EDTA, 1 mM DTT, RiboLock 2 U, 37 C 30 min; 8% native TBE PAGE at 4 C; G4 folded in 50 mM Tris-HCl pH 7.5, 150 mM KCl, 0.1 mM EDTA. The note with it: protein: recombinant; tags: His tag (Ni-NTA, pET28a); label: 3' biotin; single strand.
Chain of DDX43-KI (D3Z6P9 entry or part of it E395Q): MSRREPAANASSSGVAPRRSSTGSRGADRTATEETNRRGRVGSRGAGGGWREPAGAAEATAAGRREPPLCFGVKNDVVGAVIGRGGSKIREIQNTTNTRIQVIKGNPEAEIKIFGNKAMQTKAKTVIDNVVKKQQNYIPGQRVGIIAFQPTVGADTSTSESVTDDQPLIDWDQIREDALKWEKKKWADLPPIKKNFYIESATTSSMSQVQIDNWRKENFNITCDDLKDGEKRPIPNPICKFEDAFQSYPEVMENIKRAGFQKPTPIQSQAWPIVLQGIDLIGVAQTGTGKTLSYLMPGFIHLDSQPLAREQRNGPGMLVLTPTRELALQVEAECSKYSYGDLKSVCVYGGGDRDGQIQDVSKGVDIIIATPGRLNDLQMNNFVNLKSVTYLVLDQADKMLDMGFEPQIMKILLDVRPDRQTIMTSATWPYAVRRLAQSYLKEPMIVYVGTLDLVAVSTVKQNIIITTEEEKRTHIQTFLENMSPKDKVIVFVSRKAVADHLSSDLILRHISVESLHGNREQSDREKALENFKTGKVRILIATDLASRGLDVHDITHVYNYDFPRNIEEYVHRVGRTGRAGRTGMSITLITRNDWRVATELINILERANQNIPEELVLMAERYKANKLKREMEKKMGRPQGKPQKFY

B1: ssRNA (ssRNA)
RNA: ACCGCUGCCGUCGCUCCG
On to B1, for which the binding result is reported as “no binding”.
